Results: patent US20030165997, “Zinc finger domain libraries” (published 2003)

What was measured:
Test in all cases: cell_activity; HEK 293 luciferase
Settings in all cases: tags: HA, NLS
ZFP 35 VSSR-QSHT-RSHR = ZFP 35 VSSR-QSHT-RSHR (Homo sapiens)
Procedure: (§1) The in vivo activity assay for a particular three-finger protein was carried out as follows. HEK 293 cells were transfected with four plasmids: 14 ng of a plasmid expressing the particular three-finger protein; 14 ng of the reporter plasmid described above; 70 ng of a plasmid that expresses GAL4-VP 16; and 1.4 ng of a plasmid that expresses Renillar luciferase. The GAL4-VP 16 activates transcription of the minimal synthetic promoter in the reporter so that the repression effected by a particular three-finger protein could be clearly detected and compared to other three-finger proteins. The plasmid expressing Renillar luciferase provides a control of transfection efficiency.
(§2) Lipofectamine (Gibco-BRL) was used for the transfection procedures. Cells were transfected at 30-50% confluency in wells of a 96 well plate. The cells were incubated for two days prior to harvesting for the luciferase assay. Then luciferase activities were measured using the Dual-Luciferase™ Reporter Assay System (Promega). The observed firefly luciferase activity was normalized using the observed level of Renilla luciferase. The extent of repression or “fold-repression” was calculated by dividing a value for normalized reporter expression in the absence of a zinc finger protein by a value for normalized reporter expression in the presence of the zinc finger protein.
(§3) A total of 153 three-finger chimeric proteins were constructed from both the “zinc finger protein-first” and the “target site-first” approaches. These proteins were tested using the transient cotransfection assay described in Example 68.

ZFP 36 RSNR-VSSR-RSNR = ZFP 36 RSNR-VSSR-RSNR (Homo sapiens)
ZFP 36 RSNR-VSSR-RSNR (Homo sapiens), sequence (chain, as listed by the source): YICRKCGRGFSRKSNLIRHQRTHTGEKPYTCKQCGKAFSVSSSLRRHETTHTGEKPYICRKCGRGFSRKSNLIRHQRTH
Procedure: as §1, §2, §3

ZFP 39 VSTR-RSNR-QSHR2 = ZFP 39 VSTR-RSNR-QSHR2 (Homo sapiens)
ZFP 39 VSTR-RSNR-QSHR2 (Homo sapiens), sequence (chain, as listed by the source): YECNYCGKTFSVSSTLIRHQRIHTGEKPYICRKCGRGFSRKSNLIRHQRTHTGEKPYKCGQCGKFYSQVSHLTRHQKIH
Procedure: as §1, §2, §3

ZFP 41 QSNR3-RSNR-RSHR = ZFP 41 QSNR3-RSNR-RSHR (Homo sapiens)
ZFP 41 QSNR3-RSNR-RSHR (Homo sapiens), sequence (chain, as listed by the source): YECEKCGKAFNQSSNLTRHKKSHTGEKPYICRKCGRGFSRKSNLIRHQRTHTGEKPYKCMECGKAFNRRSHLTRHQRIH
Procedure: as §1, §2, §3

ZFP 42 RDHT-QSHR2-QSHT = ZFP 42 RDHT-QSHR2-QSHT (Homo sapiens)
ZFP 42 RDHT-QSHR2-QSHT (Homo sapiens), sequence (chain, as listed by the source): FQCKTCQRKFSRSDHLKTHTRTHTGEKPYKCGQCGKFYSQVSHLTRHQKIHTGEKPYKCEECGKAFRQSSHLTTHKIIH
Procedure: as §1, §2, §3

ZFP 43 QSSR1-QSNR3-QSHR2 = ZFP 43 QSSR1-QSNR3-QSHR2 (Homo sapiens)
ZFP 43 QSSR1-QSNR3-QSHR2 (Homo sapiens), sequence (chain, as listed by the source): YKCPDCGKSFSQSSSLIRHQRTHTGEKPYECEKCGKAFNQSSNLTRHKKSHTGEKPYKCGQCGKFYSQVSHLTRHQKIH
Procedure: as §1, §2, §3

ZFP 45 HSNK-QSNV2-VSSR = ZFP 45 HSNK-QSNV2-VSSR (Homo sapiens)
ZFP 45 HSNK-QSNV2-VSSR (Homo sapiens), sequence (chain, as listed by the source): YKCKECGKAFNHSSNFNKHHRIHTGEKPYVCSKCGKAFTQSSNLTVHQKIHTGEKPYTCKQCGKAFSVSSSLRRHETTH
Procedure: as §1, §2, §3

ZFP 46 HSNK-QSHT-RSNR = ZFP 46 HSNK-QSHT-RSNR (Homo sapiens)
ZFP 46 HSNK-QSHT-RSNR (Homo sapiens), sequence (chain, as listed by the source): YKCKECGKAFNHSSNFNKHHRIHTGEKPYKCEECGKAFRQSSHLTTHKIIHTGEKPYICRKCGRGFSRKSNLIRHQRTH
Procedure: as §1, §2, §3

ZFP 47 RSHR-QSHR2-VSTR = ZFP 47 RSHR-QSHR2-VSTR (Homo sapiens)
ZFP 47 RSHR-QSHR2-VSTR (Homo sapiens), sequence (chain, as listed by the source): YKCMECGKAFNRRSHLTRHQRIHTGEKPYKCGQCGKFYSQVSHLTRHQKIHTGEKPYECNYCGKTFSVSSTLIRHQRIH
Procedure: as §1, §2, §3

ZFP 48 RDHT-RSHR-RDER1 = ZFP 48 RDHT-RSHR-RDER1 (Homo sapiens)
ZFP 48 RDHT-RSHR-RDER1 (Homo sapiens), sequence (chain, as listed by the source): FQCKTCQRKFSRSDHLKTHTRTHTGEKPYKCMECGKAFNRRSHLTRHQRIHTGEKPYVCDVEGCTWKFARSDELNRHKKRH
Procedure: as §1, §2, §3

ZFP 49 RSHR-QSNV2-QSHT = ZFP 49 RSHR-QSNV2-QSHT (Homo sapiens)
ZFP 49 RSHR-QSNV2-QSHT (Homo sapiens), sequence (chain, as listed by the source): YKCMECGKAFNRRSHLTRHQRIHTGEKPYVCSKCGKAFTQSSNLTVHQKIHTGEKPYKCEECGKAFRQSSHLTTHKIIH
Procedure: as §1, §2, §3

ZFP 50 RSHR-RDER1-QSNV2 = ZFP 50 RSHR-RDER1-QSNV2 (Homo sapiens)
ZFP 50 RSHR-RDER1-QSNV2 (Homo sapiens), sequence (chain, as listed by the source): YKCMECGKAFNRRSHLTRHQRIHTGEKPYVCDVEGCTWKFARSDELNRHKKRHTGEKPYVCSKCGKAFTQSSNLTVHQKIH
Procedure: as §1, §2, §3

ZFP 51 VSNV-QSNV2-QSHT = ZFP 51 VSNV-QSNV2-QSHT (Homo sapiens)
ZFP 51 VSNV-QSNV2-QSHT (Homo sapiens), sequence (chain, as listed by the source): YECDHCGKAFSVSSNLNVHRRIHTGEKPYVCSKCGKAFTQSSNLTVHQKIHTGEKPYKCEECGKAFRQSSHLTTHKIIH
Procedure: as §1, §2, §3

ZFP 52 QSHR2-QSHT-RSNR = ZFP 52 QSHR2-QSHT-RSNR (Homo sapiens)
ZFP 52 QSHR2-QSHT-RSNR (Homo sapiens), sequence (chain, as listed by the source): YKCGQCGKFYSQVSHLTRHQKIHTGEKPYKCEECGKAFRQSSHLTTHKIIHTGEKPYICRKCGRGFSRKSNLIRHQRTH
Procedure: as §1, §2, §3

ZFP 53 QSHR2-RDHT-CSNR1 = ZFP 53 QSHR2-RDHT-CSNR1 (Homo sapiens)
ZFP 53 QSHR2-RDHT-CSNR1 (Homo sapiens), sequence (chain, as listed by the source): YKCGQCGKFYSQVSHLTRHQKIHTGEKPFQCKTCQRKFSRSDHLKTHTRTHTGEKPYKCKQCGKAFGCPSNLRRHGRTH
Procedure: as §1, §2, §3

ZFP 55 QSNV2-QSHR2-QSNR3 = ZFP 55 QSNV2-QSHR2-QSNR3 (Homo sapiens)
ZFP 55 QSNV2-QSHR2-QSNR3 (Homo sapiens), sequence (chain, as listed by the source): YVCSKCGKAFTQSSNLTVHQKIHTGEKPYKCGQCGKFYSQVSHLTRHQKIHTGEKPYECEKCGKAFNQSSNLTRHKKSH
Procedure: as §1, §2, §3

ZFP 56 RSNR-VSTR-RSHR = ZFP 56 RSNR-VSTR-RSHR (Homo sapiens)
ZFP 56 RSNR-VSTR-RSHR (Homo sapiens), sequence (chain, as listed by the source): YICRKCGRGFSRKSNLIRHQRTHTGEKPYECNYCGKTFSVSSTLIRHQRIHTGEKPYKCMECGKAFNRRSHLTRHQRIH
Procedure: as §1, §2, §3

ZFP 57 QSHR2-CSNR1-QSHT = ZFP 57 QSHR2-CSNR1-QSHT (Homo sapiens)
ZFP 57 QSHR2-CSNR1-QSHT (Homo sapiens), sequence (chain, as listed by the source): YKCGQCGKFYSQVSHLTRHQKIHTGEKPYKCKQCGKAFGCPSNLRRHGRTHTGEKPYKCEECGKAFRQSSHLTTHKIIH
Procedure: as §1, §2, §3

ZFP 58 VSNV-QSHR2-VSTR = ZFP 58 VSNV-QSHR2-VSTR (Homo sapiens)
ZFP 58 VSNV-QSHR2-VSTR (Homo sapiens), sequence (chain, as listed by the source): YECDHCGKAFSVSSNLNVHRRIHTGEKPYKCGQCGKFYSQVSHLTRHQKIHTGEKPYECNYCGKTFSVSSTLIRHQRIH
Procedure: as §1, §2, §3

ZFP 60 QSNR3-QSSR1-QSNV2 = ZFP 60 QSNR3-QSSR1-QSNV2 (Homo sapiens)
ZFP 60 QSNR3-QSSR1-QSNV2 (Homo sapiens), sequence (chain, as listed by the source): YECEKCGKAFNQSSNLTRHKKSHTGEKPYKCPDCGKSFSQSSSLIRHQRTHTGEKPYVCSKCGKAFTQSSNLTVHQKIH
Procedure: as §1, §2, §3

ZFP 62 RDER1-QSSR1-VSTR = ZFP 62 RDER1-QSSR1-VSTR (Homo sapiens)
ZFP 62 RDER1-QSSR1-VSTR (Homo sapiens), sequence (chain, as listed by the source): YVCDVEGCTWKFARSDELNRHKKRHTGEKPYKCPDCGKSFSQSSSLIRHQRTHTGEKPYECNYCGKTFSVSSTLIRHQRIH
Procedure: as §1, §2, §3

ZFP 64 VSSR-RSHR-ISNR = ZFP 64 VSSR-RSHR-ISNR (Homo sapiens)
ZFP 64 VSSR-RSHR-ISNR (Homo sapiens), sequence (chain, as listed by the source): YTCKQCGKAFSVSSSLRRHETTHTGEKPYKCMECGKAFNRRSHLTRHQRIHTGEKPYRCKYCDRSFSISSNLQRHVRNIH
Procedure: as §1, §2, §3

ZFP 65 RSNR-RDER1-RSHR = ZFP 65 RSNR-RDER1-RSHR (Homo sapiens)
ZFP 65 RSNR-RDER1-RSHR (Homo sapiens), sequence (chain, as listed by the source): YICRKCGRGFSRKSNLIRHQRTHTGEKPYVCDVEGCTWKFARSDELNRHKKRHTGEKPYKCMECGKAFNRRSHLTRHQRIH
Procedure: as §1, §2, §3

ZFP 35 VSSR-QSHT-RSHR (Homo sapiens), sequence (chain, as listed by the source): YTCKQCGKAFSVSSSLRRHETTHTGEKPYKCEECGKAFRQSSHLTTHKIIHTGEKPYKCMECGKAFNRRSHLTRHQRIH

B1: target 35 (dsDNA)
DNA 1: GGGTGAGTG
DNA 2: CACTCACCC
With B1 the activity (ZFP 35 VSSR-QSHT-RSHR) was 1.9 fold repression.

B2: target 36 (dsDNA)
DNA 1: GAGGTTGAGG
DNA 2: CCTCAACCTC
Binder B2 has an activity (ZFP 36 RSNR-VSSR-RSNR) of 1.8 fold repression.

B3: target 39 (dsDNA)
DNA 1: GGAGAGGCTC
DNA 2: GAGCCTCTCC
B3 gave an activity (ZFP 39 VSTR-RSNR-QSHR2) of 1.8 fold repression.

B4: target 41 (dsDNA)
DNA 1: GGGGAGGAAA
DNA 2: TTTCCTCCCC
In the case of B4, the activity (ZFP 41 QSNR3-RSNR-RSHR) is reported as 1.7 fold repression.

B5: target 42 (dsDNA)
DNA 1: AGAGGAAGGT
DNA 2: ACCTTCCTCT
In the case of B5, the activity (ZFP 42 RDHT-QSHR2-QSHT) is reported as 1.7 fold repression.

B6: target 43 (dsDNA)
DNA 1: GGAGAAGTAG
DNA 2: CTACTTCTCC
In the case of B6, the activity (ZFP 43 QSSR1-QSNR3-QSHR2) is reported as 1.7 fold repression.

B7: target 45 (dsDNA)
DNA 1: GTTCAAGAC
DNA 2: GTCTTGAAC
Binder B7 has an activity (ZFP 45 HSNK-QSNV2-VSSR) of 1.7 fold repression.

B8: target 46 (dsDNA)
DNA 1: GAGAGAGAC
DNA 2: GTCTCTCTC
B8 gave an activity (ZFP 46 HSNK-QSHT-RSNR) of 1.7 fold repression.

B9: target 47 (dsDNA)
DNA 1: GCTGGAGGGG
DNA 2: CCCCTCCAGC
For B9, the activity (ZFP 47 RSHR-QSHR2-VSTR) was 1.7 fold repression.

B10: target 48 (dsDNA)
DNA 1: GCGGGGAGGG
DNA 2: CCCTCCCCGC
B10 was tested, and the activity (ZFP 48 RDHT-RSHR-RDER1) was 1.6 fold repression.

B11: target 49 (dsDNA)
DNA 1: AGAAAAGGG
DNA 2: CCCTTTTCT
B11 was tested, and the activity (ZFP 49 RSHR-QSNV2-QSHT) was 1.6 fold repression.

B12: target 50 (dsDNA)
DNA 1: AAAGTGGGGA
DNA 2: TCCCCACTTT
Work on B12 yielded an activity (ZFP 50 RSHR-RDER1-QSNV2) of 1.6 fold repression.

B13: target 51 (dsDNA)
DNA 1: AGAAAAAATA
DNA 2: TATTTTTTCT
B13 was tested, and the activity (ZFP 51 VSNV-QSNV2-QSHT) was 1.6 fold repression.

B14: target 52 (dsDNA)
DNA 1: GAGTGAGGA
DNA 2: TCCTCACTC
Binder B14 has an activity (ZFP 52 QSHR2-QSHT-RSNR) of 1.6 fold repression.

B15: target 53 (dsDNA)
DNA 1: GACAGGGGAG
DNA 2: CTCCCCTGTC
B15 was tested, and the activity (ZFP 53 QSHR2-RDHT-CSNR1) was 1.6 fold repression.

B16: target 55 (dsDNA)
DNA 1: GAAGGAAAAT
DNA 2: ATTTTCCTTC
Work on B16 yielded an activity (ZFP 55 QSNV2-QSHR2-QSNR3) of 1.6 fold repression.

B17: target 56 (dsDNA)
DNA 1: GGGGCTGAGG
DNA 2: CCTCAGCCCC
With B17 the activity (ZFP 56 RSNR-VSTR-RSHR) was 1.5 fold repression.

B18: target 57 (dsDNA)
DNA 1: TGAGACGGAG
DNA 2: CTCCGTCTCA
Work on B18 yielded an activity (ZFP 57 QSHR2-CSNR1-QSHT) of 1.5 fold repression.

B19: target 58 (dsDNA)
DNA 1: GCTGGAAATT
DNA 2: AATTTCCAGC
Binder B19 has an activity (ZFP 58 VSNV-QSHR2-VSTR) of 1.5 fold repression.

B20: target 60 (dsDNA)
DNA 1: CAAGTAGAAG
DNA 2: CTTCTACTTG
B20 gave an activity (ZFP 60 QSNR3-QSSR1-QSNV2) of 1.5 fold repression.

B21: target 62 (dsDNA)
DNA 1: GCTGCAGCGT
DNA 2: ACGCTGCAGC
Work on B21 yielded an activity (ZFP 62 RDER1-QSSR1-VSTR) of 1.5 fold repression.

B22: target 64 (dsDNA)
DNA 1: GATGGGGTTT
DNA 2: AAACCCCATC
B22 showed an activity (ZFP 64 VSSR-RSHR-ISNR) of 1.5 fold repression.

B23: target 65 (dsDNA)
DNA 1: GGGGCGGAG
DNA 2: CTCCGCCCC
B23 gave an activity (ZFP 65 RSNR-RDER1-RSHR) of 1.5 fold repression.
